Changes are numbered by the printed parent chain. In names and notes the source's numbering stands. One block for each binder: values may come before it.
Target: T1, CD3 epsilon homodimer protein (UniProt P07766 23-126)
T1 construct: construct not described; homodimer as printed; also called CD3 (CD3 epsilon)
Assay: SPR Biacore T200, CD3 epsilon homodimer immobilized; vs unaltered GLS3000;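 note: antibody variants flowed as analyte over CD3 epsilon homodimer amine-coupled to a CM4 chip, at 25 °C in HBS-EP+ running buffer, fitted with Biacore T200 Evaluation Software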

T1 sequence (P07766 23-126): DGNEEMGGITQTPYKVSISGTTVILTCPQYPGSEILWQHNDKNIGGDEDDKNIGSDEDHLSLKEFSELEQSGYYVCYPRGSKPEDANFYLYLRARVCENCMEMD

B1: GLS3000 N28K (Kabat) L chain altered form, one-arm antibody with CE115HA000 (antibody, human IgG1, kappa, L234A L235A, N297A, name in Kabat numbering)
heavy: QVQLVESGGGVVQPGRSLRLSCAASGFTFSNAWMHWVRQAPGKGLEWVAQIKAKSNNYATYYAESVKGRFTISRDDSKNSLYLQMNSLKTEDTAVYYCRYVHYGAYYGVDAWGQGTTVTVSSASTKGPSVFPLAPSSKSTSGGTAALGCLVKDYFPEPVTVSWNSGALTSGVHTFPAVLQSSGLYSLSSVVTVPSSSLGTQTYICNVNHKPSNTKVDKKVEPKSCDKTHTCPPCPAPEAAGGPSVFLFPPKPKDTLMISRTPEVTCVVVDVSHEDPEVKFNWYVDGVEVHNAKTKPREEQYASTYRVVSVLTVLHQDWLNGKEYKCKVSNKALPAPIEKTISKAKGQPREPQVYTLPPSRCELTKNQVSLSCAVKGFYPSDIAVEWESNGQPENNYKTTPPVLDSDGSFFLVSKLTVDKSRWQQGNVFSCSVMHEALHNHYTQKSLSLSPDYKDDDDK
chain: EPKSSDKTHTCPPCPAPELLGGPSVFLFPPKPKDTLMISRTPEVTCVVVDVSHEDPEVKFNWYVDGVEVHNAKTKPREEQYNSTYRVVSVLTVLHQDWLNGKEYKCKVSNKALPAPIEKTISKAKGQPREPQVCTLPPSRDELTKNQVSLWCLVKGFYPSDIAVEWESNGQPENNYKTTPPVLDSDGSFFLYSKLTVDKSRWQQGNVFSCSVMHEALHNRYTQKSLSLSP
light: DIVMTQSPLSLPVTPGEPASISCRSSQSLVHSKRNTYLHWYQQKPGQAPRLLIYKVSNRFSGVPDRFSGSGSGTDFTLKISRVEAEDVGVYYCGQGTQVPYTFGQGTKLEIKRTVAAPSVFIFPPSDEQLKSGTASVVCLLNNFYPREAKVQWKVDNALQSGNSQESVTEQDSKDSTYSLSSTLTLSKADYEKHKVYACEVTHQGLSSPVTKSFNRGEC
notes: one-arm antibody
- KD ratio to GLS3000 (Affinity up): 2.34

B2: GLS3000 N28W (Kabat) L chain altered form, one-arm antibody with CE115HA000 (antibody, human IgG1, kappa, L234A L235A, N297A, name in Kabat numbering)
heavy: B1 heavy
chain: B1 chain
light: B1 light with K33W
notes: one-arm antibody
- KD ratio to GLS3000 (Affinity up): 3.17

B3: GLS3000 N28V (Kabat) L chain altered form, one-arm antibody with CE115HA000 (antibody, human IgG1, kappa, L234A L235A, N297A, name in Kabat numbering)
heavy: B1 heavy
chain: B1 chain
light: B1 light with K33V
notes: one-arm antibody
- KD ratio to GLS3000 (Affinity up): 3.73

B4: GLS3000 N30E (Kabat) L chain altered form, one-arm antibody with CE115HA000 (antibody, human IgG1, kappa, L234A L235A, N297A, name in Kabat numbering)
heavy: B1 heavy
chain: B1 chain
light: B1 light with K33N, N35E
notes: one-arm antibody
- KD ratio to GLS3000 (Affinity up): 2.83

B5: GLS3000 N30H (Kabat) L chain altered form, one-arm antibody with CE115HA000 (antibody, human IgG1, kappa, L234A L235A, N297A, name in Kabat numbering)
heavy: B1 heavy
chain: B1 chain
light: B1 light with K33N, N35H
notes: one-arm antibody
- KD ratio to GLS3000 (Affinity up): 1.08

B7: GLS3000 N30G (Kabat) L chain altered form, one-arm antibody with CE115HA000 (antibody, human IgG1, kappa, L234A L235A, N297A, name in Kabat numbering)
heavy: B1 heavy
chain: B1 chain
light: B1 light with K33N, N35G
notes: one-arm antibody
- KD ratio to GLS3000 (Affinity up): 2.1

B8: GLS3000 N30A (Kabat) L chain altered form, one-arm antibody with CE115HA000 (antibody, human IgG1, kappa, L234A L235A, N297A, name in Kabat numbering)
heavy: B1 heavy
chain: B1 chain
light: B1 light with K33N, N35A
notes: one-arm antibody
- KD ratio to GLS3000 (Affinity up): 1.16

B9: GLS3000 N28S (Kabat) L chain altered form, one-arm antibody with CE115HA000 (antibody, human IgG1, kappa, L234A L235A, N297A, name in Kabat numbering)
heavy: B1 heavy
chain: B1 chain
light: B1 light with K33S
notes: one-arm antibody
- KD ratio to GLS3000 (Affinity up): 4.3

B10: GLS3000 N28P (Kabat) L chain altered form, one-arm antibody with CE115HA000 (antibody, human IgG1, kappa, L234A L235A, N297A, name in Kabat numbering)
heavy: B1 heavy
chain: B1 chain
light: B1 light with K33P
notes: one-arm antibody
- KD ratio to GLS3000 (Affinity up): 4.18

B12: GLS3000 N28T (Kabat) L chain altered form, one-arm antibody with CE115HA000 (antibody, human IgG1, kappa, L234A L235A, N297A, name in Kabat numbering)
heavy: B1 heavy
chain: B1 chain
light: B1 light with K33T
notes: one-arm antibody
- KD ratio to GLS3000 (Affinity up): 2.67

B13: GLS3000 N28Y (Kabat) L chain altered form, one-arm antibody with CE115HA000 (antibody, human IgG1, kappa, L234A L235A, N297A, name in Kabat numbering)
heavy: B1 heavy
chain: B1 chain
light: B1 light with K33Y
notes: one-arm antibody
- KD ratio to GLS3000 (Affinity up): 3.89

B15: GLS3000 N28Q (Kabat) L chain altered form, one-arm antibody with CE115HA000 (antibody, human IgG1, kappa, L234A L235A, N297A, name in Kabat numbering)
heavy: B1 heavy
chain: B1 chain
light: B1 light with K33Q
notes: one-arm antibody
- KD ratio to GLS3000 (Affinity up): 3.48

B16: GLS3000 N30D (Kabat) L chain altered form, one-arm antibody with CE115HA000 (antibody, human IgG1, kappa, L234A L235A, N297A, name in Kabat numbering)
heavy: B1 heavy
chain: B1 chain
light: B1 light with K33N, N35D
notes: one-arm antibody
- KD ratio to GLS3000 (Affinity up): 3.82

B19: GLS3000 N28M (Kabat) L chain altered form, one-arm antibody with CE115HA000 (antibody, human IgG1, kappa, L234A L235A, N297A, name in Kabat numbering)
heavy: B1 heavy
chain: B1 chain
light: B1 light with K33M
notes: one-arm antibody
- KD ratio to GLS3000 (Affinity up): 3.29

B22: GLS3000 N28L (Kabat) L chain altered form, one-arm antibody with CE115HA000 (antibody, human IgG1, kappa, L234A L235A, N297A, name in Kabat numbering)
heavy: B1 heavy
chain: B1 chain
light: B1 light with K33L
notes: one-arm antibody
- KD ratio to GLS3000 (Affinity up): 3.34

Next, values leading:

- KD ratio to GLS3000 (Affinity up): 1.35
B6: GLS3000 N30K (Kabat) L chain altered form, one-arm antibody with CE115HA000 (antibody, human IgG1, kappa, L234A L235A, N297A, name in Kabat numbering)
heavy: B1 heavy
chain: B1 chain
light: B1 light with K33N, N35K
notes: one-arm antibody

- KD ratio to GLS3000 (Affinity up): 1
B11: GLS3000 N30Q (Kabat) L chain altered form, one-arm antibody with CE115HA000 (antibody, human IgG1, kappa, L234A L235A, N297A, name in Kabat numbering)
heavy: B1 heavy
chain: B1 chain
light: B1 light with K33N, N35Q
notes: one-arm antibody

- KD ratio to GLS3000 (Affinity up): 1.73
B14: GLS3000 N30R (Kabat) L chain altered form, one-arm antibody with CE115HA000 (antibody, human IgG1, kappa, L234A L235A, N297A, name in Kabat numbering)
heavy: B1 heavy
chain: B1 chain
light: B1 light with K33N, N35R
notes: one-arm antibody

- KD ratio to GLS3000 (Affinity up): 10.6
B17: GLS3000 N30S (Kabat) L chain altered form, one-arm antibody with CE115HA000 (antibody, human IgG1, kappa, L234A L235A, N297A, name in Kabat numbering)
heavy: B1 heavy
chain: B1 chain
light: B1 light with K33N, N35S
notes: one-arm antibody

- KD ratio to GLS3000 (Affinity up): 1.19
B18: GLS3000 N30L (Kabat) L chain altered form, one-arm antibody with CE115HA000 (antibody, human IgG1, kappa, L234A L235A, N297A, name in Kabat numbering)
heavy: B1 heavy
chain: B1 chain
light: B1 light with K33N, N35L
notes: one-arm antibody

- KD ratio to GLS3000 (Affinity up): 1.2
B20: GLS3000 N30M (Kabat) L chain altered form, one-arm antibody with CE115HA000 (antibody, human IgG1, kappa, L234A L235A, N297A, name in Kabat numbering)
heavy: B1 heavy
chain: B1 chain
light: B1 light with K33N, N35M
notes: one-arm antibody

- KD ratio to GLS3000 (Affinity up): 1.24
B21: GLS3000 N30I (Kabat) L chain altered form, one-arm antibody with CE115HA000 (antibody, human IgG1, kappa, L234A L235A, N297A, name in Kabat numbering)
heavy: B1 heavy
chain: B1 chain
light: B1 light with K33N, N35I
notes: one-arm antibody

- KD ratio to GLS3000 (Affinity up): 12.1
B23: GLS3000 N30P (Kabat) L chain altered form, one-arm antibody with CE115HA000 (antibody, human IgG1, kappa, L234A L235A, N297A, name in Kabat numbering)
heavy: B1 heavy
chain: B1 chain
light: B1 light with K33N, N35P
notes: one-arm antibody
